{"source": "patent US20250188143A1", "about": "“COMBINED GENE AND RADIO THERAPY FOR THE TREATMENT OF CANCER” (FUNDACION PARA LA INVESTIGACION MEDICA APLICADA, priority 2022, published 2025)", "molecules": {"B1": {"name": "CXCL10-promoter: CXCL10 promoter according to SEQ ID NO: 24 (nucleic acid, listed as Mus musculus)", "DNA": "TCTAACTGTTCACTAAGTTGTATAGACTTTGGATCTGGCTAAATTTGGCGTGTGATTTTTTTTTAAAGTTTATTCCAAGTATTTTATAATAAAGCATATGAAGTAAAAAGCAAAAATAAACAGTGTAAACACAACAAATGTAAAAACCATGGTTAGAACCTGACTTAGATATCAGTTCTGTGTTTTATTTATGAGAGAAGGAAGATGAGAATTAAAGCCATTTCCAGACTTATTCTGCAAGGCACTGCATCTGATTTCTCAAACAGCTCACGCTTTGGAAAGTGAAACTTACCTCACTCGTTAAAAATTAAAAGGAGCACAAGAGGGGAGAGGGAAATTCCAAGTTCATGGGTCACAATAAACACAAGCAATGCCCTCGGTTTACAGGGGACTTCCCTCGGGTTGCGGAGCCTTGCTGAGTCATCTCCAAAGTCAGCCAATCAGGACTCAGGGAGGGAAACTCTTTGCAGATAAATACTCCTCAGCAGCCGGCACTCGAGAAGCGCTTCATCCACCGCTGAGAGACATCCCGAGCCAACCTTCCGGAAGCCTCCCCATCAGCACC", "modifications": "misc_feature 1..565 CXCL10-promoter"}, "B2": {"name": "CXCL9-promoter: CXCL9 promoter according to SEQ ID NO: 23 (nucleic acid, listed as Mus musculus)", "DNA": "GACACAGACATCTCGTGAAACATCTGGAAAAGGTAGCAGGGAACGGGACAGCAGTAGCTTATGCAACTAATCTAGCAATTACAATGATAGGAAACTGTAGCCACGGTGAGACGAAATGGATTTACCCTCAACAAATTAAGAAGCTTTGACTTGTGAGGAAAGGCAGTTTGAGTCGCCATATAGTGTCATGTCCCACGTGGGAAGTACATCTCCAACCTTCATTGTACAACATTAATATAGTCATTGTATAATCTATTCCACATCCAGGTAGCAACTTTGCCTGGGGGTGGTTTCACATCCCTTACTATAAACTCCCCGTTTATGTGAAATGGAAGTAGAACATGCAGAAATTCCCTGGGATCTGAGAGTAGGGTTTTCCCCAGGACGATCAATTTGTGGTTAGTTTAGTTCTTCTAGGTCAGCTGAGGAGACCAGCCAATCAGAGACGGGAAGGAAAAGGGATTTCCTAAATAAATATGATCCCCAAGAACATGCTCTCTAAAGACATTCTCGGACTTCACTCCAACACAGTGACTCAATAGAACTCAGCTCTGCC", "modifications": "misc_feature 1..556 CXCL9-promoter"}, "B3": {"name": "short STAT-promoter: 4 STAT motifs separated by 6 nucleotides according to SEQ ID NO: 26 (nucleic acid)", "DNA": "ATCTCTGCGATGAACCTCACTTCGCTAGAAATCTCTGCGATGAACCTCACTTCGCTAGAAATATCTCTGCGATGAACCTCACTTCGCTAGAAATCTCTGCGATGAACCTCACTTCGCTAGAAGTGCCTCTTATGATCTGGATCTCGAGCCATGGTCGAGGCCTGTAGGCGTGTACGGTGGGAGGCTTATATAAGCAGAGCTC", "modifications": "misc_feature 1..202 STATx4"}, "B4": {"name": "ISREx4-promoter: 4 ISRE motifs separated by 20 nucleotides according to SEQ ID NO: 12 (nucleic acid)", "DNA": "ATCTCTGCGATGAACCTCACAGTTTCGCTTTCTATCTCTGCGATGAACCTCACAGTTTCGCTTTCTATCTCTGCGATGAACCTCACAGTTTCGCTTTCTATCTCTGCGATGAACCTCACAGTTTCGCTTTCTGTGCCTCTTATGATCTGGATCTCGAGCCATGGTCGAGGCCTGTAGGCGTGTACGGTGGGAGGCTTATATAAGCAGAGCTC", "modifications": "misc_feature 1..212 ISREx4"}, "B5": {"name": "IFN-γ: exogenously added interferon, 1,000 IU (protein, UniProt P01579 24-161, looked up)", "Interferon gamma": "QDPYVKEAENLKKYFNAGHSDVADNGTLFLGILKNWKEESDRKIMQSQIVSFYFKLFKNFKDDQSIQKSVETIKEDMNVKFFNSNKKKRDDFEKLTNYSVTDLNVQRKAIHELIQVMAELSPAAKTGKRKRSQMLFRG"}, "B6": {"name": "IFN-β-promoter: full length IFN-β-promoter according to SEQ ID NO: 25 (nucleic acid, listed as Mus musculus)", "DNA": "CCAGGATGTGGGGTTCTCTCCCAAAGGGAGCTATGGCCCATTGATGTGCCATTTCTCTTATAGTACACTATTGTAAGCCCCCTGGGAGCTCACAGAGACCCTCTCCCACCATCCCACTATTTCAAAGGGCAGCAGCTGTGCCATCCTTTCAGGATGAGCAGCTACTCTGCCTGGCTTTTCAGTGGACACTTTGGCTGTTTGAGAGTTCTTTTATCTTCAGGGCTGTCTCCTTTCTGTTCTTCTCTCCTGGATATTTCTCTTCCTTTGCTCCAGCAATTGGTGAAACTGTACAAGATTTTATAAATCCTTAGTTTGTATATATTTTAACCCAGTACATAGCATATAAAATAGCCAGGAGCTTGAATAAAATGAATATTAGAAGCTGTTAGAATAAGAGAAAATGACAGAGGAAAACTGAAAGGGAGAACTGAAAGTGGGAAATTCCTCTGAGGCAGAAAGGACCATCCCTTATAAATAGCACAGGCCATGAAGGAAGATCATTCTCACTGCAGCCTTTGACAGCCTTTGCCTCATCTTGCAGGTAGCAGCCGACACCAGCCTGGCTTCCATC", "modifications": "misc_feature 1..571 IFNb1-promoter"}}, "key": {"[1]": {"biological_target": "T1, murine STING (Mus musculus, UniProt Q3TBT3)", "T1 sequence (Q3TBT3 1-378)": "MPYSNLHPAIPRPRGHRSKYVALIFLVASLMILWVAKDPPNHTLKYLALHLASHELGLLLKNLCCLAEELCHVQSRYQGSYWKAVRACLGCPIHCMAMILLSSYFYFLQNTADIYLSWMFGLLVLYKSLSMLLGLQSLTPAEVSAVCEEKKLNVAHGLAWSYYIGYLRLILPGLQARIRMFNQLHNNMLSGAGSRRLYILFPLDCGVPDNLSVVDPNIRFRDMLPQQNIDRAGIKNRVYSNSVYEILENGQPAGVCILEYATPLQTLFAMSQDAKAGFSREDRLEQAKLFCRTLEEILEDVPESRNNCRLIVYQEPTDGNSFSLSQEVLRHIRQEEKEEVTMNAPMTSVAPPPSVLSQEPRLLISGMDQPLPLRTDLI", "settings": "cited from earlier work"}, "[2]": {"test_system": "B16 cells", "test": "Radiation and IFN signaling on activation of the ISREx4 promoter (luciferase)", "format": "cell-based, murine", "settings": "B16 cells transduced with AAV8-ISREx4-LucmiR122T", "procedure": "To this end, B16 cells received 8 Gy or 0 Gy as described above and then were transduced with AAV8-ISREx4-LucmiR122T (1×10^5 viral genomes/cell) and 48 h later 1,000 IU of either IFN-α, IFN-β or IFN-γ were added to the culture and luciferase activity was measured 48 h later as described above."}, "[3]": {"test_system": "MC38 cell lines stably expressing hSTINGmut", "test": "Luciferase activity under chemokine promoters", "format": "cell-based, murine", "settings": "for luciferase activity upon DMXAA: DMXAA 50 μg/mL, 3 or 6 h, compared to the IFN-β promoters; for luciferase activity in the absence of DMXAA (leaky expression): vehicle", "protocol": "The CXCL9-promoter (CXCL9 according to SEQ ID NO: 23) and the CXCL10-promoter (CXCL10 according to SEQ ID NO: 24) were used for the following experiment. To this end, lentiviral vectors encoding luciferase under the control of these two different promoters were constructed. […] In addition, the lentiviral vectors encoding the short IFN-β A promoter, the short IFN-β B promoter, the short IFN-β C promoter described in experiment 1 were used as a comparison. […] After another 3 or 6 h, cells were harvested and luciferase activity measured as described in experiment 1."}, "[4]": {"test_system": "MC38 cell lines stably expressing hSTINGmut", "test": "scIL-12 mRNA and protein expression under STING-activity dependent promoters", "format": "cell-based, murine", "settings": "for scIL-12 mRNA or protein expression upon DMXAA: DMXAA 50 μg/mL", "description": "The CXCL9-promoter and the CXCL10-promoter from experiment 2, and a full length IFN-β-promoter (IFN-β according to SEQ ID NO: 25) were used for the following experiment. To this end, lentiviral vectors encoding murine scIL-12 under the control of these three different promoters were constructed. […] After the indicated time points, cells were harvested. The cell lysate was used to measure scIL-12 mRNA expression by qPCR as described before (example 1, experiment 1), whereas the supernatant was used to measure secreted scIL-12 protein in NUNC MaxiSorp flat-bottom 96-well plates using an ELISA assay kit (OptEIA, Mouse IL-12 (p70), BD Biosciences, San Diego, CA USA), following manufacturer's instructions."}, "[5]": {"test_system": "HEK293T cells stably expressing hSTINGmut", "test": "Luciferase activity under synthetic promoters", "format": "cell-based, human", "settings": "for luciferase activity upon DMXAA (inducibility): DMXAA 50 μg/mL; for luciferase activity in the absence of DMXAA (leakage): vehicle", "description": "(§1) Seven different promoters were generated, namely short STATx4 (4 STAT motifs separated by 6 nucleotides according to SEQ ID NO: 26), IRSF3×4 (4 IRSF3 motifs separated by 20 nucleotides according to SEQ ID NO: 27), short IRSF3×4 (4 IRSF3 motifs separated by 6 nucleotides according to SEQ ID NO: 28), ISREx4 (4 ISRE motifs separated by 20 nucleotides according to SEQ ID NO: 12), short ISREx4 (4 ISRE motifs separated by 6 nucleotides according to SEQ ID NO: 13), NFκBx4 (4 NFκB motifs separated by 20 nucleotides according to SEQ ID NO: 29) and short NFκBx4 (4 NFκB motifs separated by 6 nucleotides according to SEQ ID NO: 30). […] In addition, a plasmid containing the luciferase sequence under the control of the murine IFN-β-promoter (mIFN-β) and a plasmid containing the luciferase sequence under the control of CXCL10-promoter were used as controls. Either MC38 cells or human HEK293T cells, both which stably expressed hSTINGmut as described above (example 1), were transfected with the indicated plasmids using Lipofectamine3000 according to the manufacturers protocol, whereas a negative control was mock-transfected (Basic)."}, "[6]": {"test_system": "MC38 cells stably expressing hSTINGmut", "test": "Luciferase activity under synthetic promoters", "format": "cell-based, murine", "settings": "DMXAA 50 μg/mL", "description": "as §1"}, "[7]": {"settings": "1,000 IU interferon alone (0 Gy)"}, "[8]": {"settings": "interferon together with radiation 8 Gy"}}}
{"molecule": "O=C(O)Cc1cccc2c(=O)cc(-c3ccccc3)oc12", "note": "[FAA, flavone-8-acetic acid]", "values": [{"measurement": "activation of murine STING", "setting": "[1]", "value": "activated"}]}
{"molecule": "IFN-α", "values": [{"measurement": "luciferase activity", "setting": "[2]; [7]", "value": "significantly increased luciferase activity"}, {"measurement": "luciferase activity", "setting": "[2]; [8]", "value": "induced luciferase activity dramatically"}]}
{"molecule": "B1", "values": [{"measurement": "luciferase activity upon DMXAA", "setting": "[3]", "value": "significantly higher luciferase activities"}, {"measurement": "luciferase activity in the absence of DMXAA (leaky expression)", "setting": "[3]", "value": "significant luciferase activity"}, {"measurement": "scIL-12 mRNA or protein expression upon DMXAA", "setting": "[4]", "value": "highly upregulated"}, {"measurement": "scIL-12 production in the absence of DMXAA (leakage)", "setting": "[4]; vehicle", "value": "significant leakage"}, {"measurement": "luciferase activity upon DMXAA (inducibility)", "setting": "[5]", "value": "highest inducibility"}, {"measurement": "luciferase activity in the absence of DMXAA (leakage)", "setting": "[5]", "value": "considerable leakage"}]}
{"molecule": "B2", "values": [{"measurement": "luciferase activity upon DMXAA", "setting": "[3]", "value": "significantly higher luciferase activities"}, {"measurement": "luciferase activity in the absence of DMXAA (leaky expression)", "setting": "[3]", "value": "significant luciferase activity"}, {"measurement": "scIL-12 mRNA or protein expression upon DMXAA", "setting": "[4]", "value": "poor"}]}
{"molecule": "B3", "values": [{"measurement": "luciferase activity upon DMXAA (inducibility)", "setting": "[6]", "value": "poor inducibility"}]}
{"molecule": "B4", "values": [{"measurement": "luciferase activity upon DMXAA (inducibility)", "setting": "[5]", "value": "highest inducibility"}, {"measurement": "luciferase activity in the absence of DMXAA (leakage)", "setting": "[5]", "value": "undetectable leakage"}]}
{"molecule": "B5", "values": [{"measurement": "luciferase activity", "setting": "[2]; [7]", "value": "significantly increased luciferase activity"}, {"measurement": "luciferase activity", "setting": "[2]; [8]", "value": "induced luciferase activity dramatically"}]}
{"molecule": "B6", "values": [{"measurement": "scIL-12 mRNA or protein expression upon DMXAA", "setting": "[4]", "value": "poor"}]}
